Publication doi:10.1101/2020.04.27.064493

Target: human DNMT1 fragment (residues 351-1600) (human) (UniProt P26358)
Experiment: ITC

Row | Substance | Kd [nM]
1 | H3_(1-24)Ub2: H3 (1-24) K18C/K23C peptide carrying two ubiquitin(G76C) through dichloroacetone linkage (from UniProt P68431;P0CG48) (complex) | 91
2 | H3_(1-24)K9me3Ub2: H3 (1-24) K9me3 K18C/K23C peptide carrying two ubiquitin(G76C) through dichloroacetone linkage (from UniProt P68431;P0CG48) (complex) | 17
